Experiment [1] concerns the target EphA4 WT fused to C-terminal mTURQ or EYFP (human) (UniProt P54764). Kind of experiment: fluorescence intensity fluctuation (FIF) analysis; molecular brightness in transfected HEK293 cells in the presence of ephrinA5-Fc.
For experiment [2] the target is unchanged. Kind of experiment: fluorescence intensity fluctuation (FIF) analysis; molecular brightness in regions of the basolateral membrane of transfected HEK293 cells, no ligand, data over the whole range of receptor concentrations.
The target is the same in experiment [3]. Kind of experiment: fluorescence intensity fluctuation (FIF) analysis; molecular brightness, no ligand, only the data at receptor concentrations above 3000 receptors/μm^2.
Experiment [4] shares this target. Kind of experiment: FRET or BRET; FSI-FRET of mTURQ- and EYFP-tagged receptor in the plasma membrane of live HEK293T cells, no ligand, hypo-osmotic medium; fit of a monomer-dimer equilibrium (Equation 2): dimer to monomers; constants in two-dimensional concentration. (Bioluminescence resonance energy transfer reports proximity on the nanometre scale.)
Experiment [5] shares this target. Kind of experiment: FRET or BRET; FSI-FRET as without ligand but with 0.5 μg/ml ephrinA5-Fc in the hypo-osmotic medium; monomer-dimer equilibrium: dimer to monomers.

A word on the stoichiometry N: it is the number of molecules, sites or subunits per partner or assembly.

On to “EphA4 WT fused to C-terminal mTURQ or EYFP (from UniProt P54764-1 20-986) (receptor)”, for which the molecular brightness at the maximum of the distribution in experiment [1] was < 2. In addition, in experiment [2], the molecular brightness at the peak of the distribution is < 2. Besides, the stoichiometry N in experiment [3], in experiment [4] and in experiment [5] was 2 each time. In addition, the oligomeric fraction above 3000 receptors/μm^2 in experiment [4] is > 65%.

Values taken from PMC8260879.
